Laboratory results reported in IntAct's records for PubMed 29892012.

B1: Coiled-coil alpha-helical rod protein 1 (Homo sapiens), Q8TD31 (parent)
chain: MFPPSGSTGLIPPSHFQARPLSTLPRMAPTWLSDIPLVQPPGHQDVSERRLDTQRPQVTMWERDVSSDRQEPGRRGRSWGLEGSQALSQQAEVIVRQLQELRRLEEEVRLLRETSLQQKMRLEAQAMELEALARAEKAGRAEAEGLRAALAGAEVVRKNLEEGSQRELEEVQRLHQEQLSSLTQAHEEALSSLTSKAEGLEKSLSSLETRRAGEAKELAEAQREAELLRKQLSKTQEDLEAQVTLVENLRKYVGEQVPSEVHSQTWELERQKLLETMQHLQEDRDSLHATAELLQVRVQSLTHILALQEEELTRKVQPSDSLEPEFTRKCQSLLNRWREKVFALMVQLKAQELEHSDSVKQLKGQVASLQEKVTSQSQEQAILQRSLQDKAAEVEVERMGAKGLQLELSRAQEARRRWQQQTASAEEQLRLVVNAVSSSQIWLETTMAKVEGAAAQLPSLNNRLSYAVRKVHTIRGLIARKLALAQLRQESCPLPPPVTDVSLELQQLREERNRLDAELQLSARLIQQEVGRAREQGEAERQQLSKVAQQLEQELQQTQESLASLGLQLEVARQGQQESTEEAASLRQELTQQQELYGQALQEKVAEVETRLREQLSDTERRLNEARREHAKAVVSLRQIQRRAAQEKERSQELRRLQEEARKEEGQRLARRLQELERDKNLMLATLQQEGLLSRYKQQRLLTVLPSLLDKKKSVVSSPRPPECSASAPVAAAVPTRESIKGSLSVLLDDLQDLSEAISKEEAVCQGDNLDRCSSSNPQMSS
partner: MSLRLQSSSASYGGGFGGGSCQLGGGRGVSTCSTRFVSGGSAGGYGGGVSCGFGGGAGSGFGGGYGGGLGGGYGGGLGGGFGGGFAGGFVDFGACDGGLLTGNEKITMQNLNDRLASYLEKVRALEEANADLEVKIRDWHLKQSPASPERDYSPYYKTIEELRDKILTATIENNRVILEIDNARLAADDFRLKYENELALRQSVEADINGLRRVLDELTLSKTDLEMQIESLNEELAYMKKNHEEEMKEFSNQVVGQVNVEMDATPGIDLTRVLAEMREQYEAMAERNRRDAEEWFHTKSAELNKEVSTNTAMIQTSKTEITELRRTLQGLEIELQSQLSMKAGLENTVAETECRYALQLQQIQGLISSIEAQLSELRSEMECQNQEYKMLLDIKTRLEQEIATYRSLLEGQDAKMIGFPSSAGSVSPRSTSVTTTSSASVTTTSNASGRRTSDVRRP
B2: TBC1 domain family member 22B (Homo sapiens), Q9NU19 (parent)
chain: MAAENSKQFWKRSAKLPGSIQPVYGAQHPPLDPRLTKNFIKERSKVNTVPLKNKKASSFHEFARNTSDAWDIGDDEEEDFSSPSFQTLNSKVALATAAQVLENHSKLRVKPERSQSTTSDVPANYKVIKSSSDAQLSRNSSDTCLRNPLHKQQSLPLRPIIPLVARISDQNASGAPPMTVREKTRLEKFRQLLSSQNTDLDELRKCSWPGVPREVRPITWRLLSGYLPANTERRKLTLQRKREEYFGFIEQYYDSRNEEHHQDTYRQIHIDIPRTNPLIPLFQQPLVQEIFERILFIWAIRHPASGYVQGINDLVTPFFVVFLSEYVEEDVENFDVTNLSQDMLRSIEADSFWCMSKLLDGIQDNYTFAQPGIQKKVKALEELVSRIDEQVHNHFRRYEVEYLQFAFRWMNNLLMRELPLRCTIRLWDTYQSEPEGFSHFHLYVCAAFLIKWRKEILDEEDFQGLLMLLQNLPTIHWGNEEIGLLLAEAYRLKYMFADAPNHYRR

Variants of: B1
Conditions: with KRT13, P13646

Variant | effect of a mutation on the interaction
W337R | disrupting interaction strength

Variants of: B2
Conditions: with fxr2_human FXR2, P51116
Chain of fxr2_human FXR2, P51116 (P51116 whole entry): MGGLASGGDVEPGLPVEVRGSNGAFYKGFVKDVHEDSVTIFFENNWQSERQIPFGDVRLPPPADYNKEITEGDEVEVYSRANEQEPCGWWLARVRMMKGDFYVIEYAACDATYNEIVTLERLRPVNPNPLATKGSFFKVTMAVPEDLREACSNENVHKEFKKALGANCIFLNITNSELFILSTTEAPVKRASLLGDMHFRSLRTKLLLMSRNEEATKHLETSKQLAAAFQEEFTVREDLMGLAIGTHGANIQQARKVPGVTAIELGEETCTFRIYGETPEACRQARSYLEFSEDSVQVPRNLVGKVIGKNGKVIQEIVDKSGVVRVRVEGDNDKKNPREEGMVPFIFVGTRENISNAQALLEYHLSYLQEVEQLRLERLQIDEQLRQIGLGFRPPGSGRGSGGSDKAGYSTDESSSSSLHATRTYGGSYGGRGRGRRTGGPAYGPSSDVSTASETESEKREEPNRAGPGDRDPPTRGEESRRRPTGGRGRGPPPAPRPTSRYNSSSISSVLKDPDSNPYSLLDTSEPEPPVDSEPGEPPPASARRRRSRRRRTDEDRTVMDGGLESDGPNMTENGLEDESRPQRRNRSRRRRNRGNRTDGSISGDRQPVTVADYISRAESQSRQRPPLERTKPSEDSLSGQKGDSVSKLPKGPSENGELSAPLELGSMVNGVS

Variant | effect of a mutation on the interaction
MAAENSKQFWKRSAKLPGSIQPVYGAQHPPLDPRLTKNFIKERSKVNTVPLKNKKASSFHEFARNTSDAWDIGDDEEEDFSSPSFQTLNSKVALATAAQVLENHSKLRVKPERSQSTTSDVPANYKVIKSSSDAQLSRNSSDTCLRNPLHKQQSLPLRPIIPLVARISDQNASGAPPMTVREKTRLEKFRQLLSSQNTDLDELRKCSWPGVPREVRPITWRLLSGYLPANTERRKLTLQRKREEYFGFIEQYYDSRNEEHHQDTYRQIHIDIPRTNPLIPLFQQPLVQEIFERILFIWAIRHPASGYVQGINDLVTPFFVVFLSEYVEEDVENFDVTNLSQDMLRSIETDSFWCMSKLLDGIQDNYTFAQPGIQKKVKALEELVSRIDEQVHNHFRRYEVEYLQFAFRWMNNLLMRELPLRCTIRLWDTYQSEPEGFSHFHLYVCAAFLIKWRKEILDEEDFQGLLMLLQNLPTIHWGNEEIGLLLAEAYRLKYMFADAPNHYRR [A349T] | disrupting interaction strength

Variants of: B2
Conditions: with ikzf3_human IKZF3, Q9UKT9
Chain of ikzf3_human IKZF3, Q9UKT9 (Q9UKT9 whole entry): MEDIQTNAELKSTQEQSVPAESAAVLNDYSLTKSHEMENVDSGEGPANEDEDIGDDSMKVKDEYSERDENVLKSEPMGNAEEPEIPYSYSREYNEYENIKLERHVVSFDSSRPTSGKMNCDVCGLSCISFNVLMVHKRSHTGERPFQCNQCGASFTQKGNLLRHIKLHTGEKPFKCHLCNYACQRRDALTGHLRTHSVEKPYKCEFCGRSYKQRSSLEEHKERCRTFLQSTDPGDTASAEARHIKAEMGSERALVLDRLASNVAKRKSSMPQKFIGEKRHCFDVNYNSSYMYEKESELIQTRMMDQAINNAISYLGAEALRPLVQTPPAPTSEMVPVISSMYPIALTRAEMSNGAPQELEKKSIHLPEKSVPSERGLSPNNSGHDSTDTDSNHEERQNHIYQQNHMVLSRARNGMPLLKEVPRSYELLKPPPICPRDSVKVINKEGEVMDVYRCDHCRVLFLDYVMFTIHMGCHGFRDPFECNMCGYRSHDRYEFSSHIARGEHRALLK

Variant | effect of a mutation on the interaction
MAAENSKQFWKRSAKLPGSIQPVYGAQHPPLDPRLTKNFIKERSKVNTVPLKNKKASSFHEFARNTSDAWDIGDDEEEDFSSPSFQTLNSKVALATAAQVLENHSKLRVKPERSQSTTSDVPANYKVIKSSSDAQLSRNSSDTCLRNPLHKQQSLPLRPIIPLVARISDQNASGAPPMTVREKTRLEKFRQLLSSQNTDLDELRKCSWPGVPREVRPITWRLLSGYLPANTERRKLTLQRKREEYFGFIEQYYDSRNEEHHQDTYRQIHIDIPRTNPLIPLFQQPLVQEIFERILFIWAIRHPASGYVQGINDLVTPFFVVFLSEYVEEDVENFDVTNLSQDMLRSIETDSFWCMSKLLDGIQDNYTFAQPGIQKKVKALEELVSRIDEQVHNHFRRYEVEYLQFAFRWMNNLLMRELPLRCTIRLWDTYQSEPEGFSHFHLYVCAAFLIKWRKEILDEEDFQGLLMLLQNLPTIHWGNEEIGLLLAEAYRLKYMFADAPNHYRR [A349T] | disrupting interaction strength

Variants of: B2
Conditions: with tacc3_human TACC3, Q9Y6A5

Variant | effect of a mutation on the interaction
MAAENSKQFWKRSAKLPGSIQPVYGAQHPPLDPRLTKNFIKERSKVNTVPLKNKKASSFHEFARNTSDAWDIGDDEEEDFSSPSFQTLNSKVALATAAQVLENHSKLRVKPERSQSTTSDVPANYKVIKSSSDAQLSRNSSDTCLRNPLHKQQSLPLRPIIPLVARISDQNASGAPPMTVREKTRLEKFRQLLSSQNTDLDELRKCSWPGVPREVRPITWRLLSGYLPANTERRKLTLQRKREEYFGFIEQYYDSRNEEHHQDTYRQIHIDIPRTNPLIPLFQQPLVQEIFERILFIWAIRHPASGYVQGINDLVTPFFVVFLSEYVEEDVENFDVTNLSQDMLRSIETDSFWCMSKLLDGIQDNYTFAQPGIQKKVKALEELVSRIDEQVHNHFRRYEVEYLQFAFRWMNNLLMRELPLRCTIRLWDTYQSEPEGFSHFHLYVCAAFLIKWRKEILDEEDFQGLLMLLQNLPTIHWGNEEIGLLLAEAYRLKYMFADAPNHYRR [A349T] | disrupting interaction strength

Variants of: B2
Conditions: with tri23_human TRIM23, P36406
Chain of tri23_human TRIM23, P36406 (P36406 whole entry): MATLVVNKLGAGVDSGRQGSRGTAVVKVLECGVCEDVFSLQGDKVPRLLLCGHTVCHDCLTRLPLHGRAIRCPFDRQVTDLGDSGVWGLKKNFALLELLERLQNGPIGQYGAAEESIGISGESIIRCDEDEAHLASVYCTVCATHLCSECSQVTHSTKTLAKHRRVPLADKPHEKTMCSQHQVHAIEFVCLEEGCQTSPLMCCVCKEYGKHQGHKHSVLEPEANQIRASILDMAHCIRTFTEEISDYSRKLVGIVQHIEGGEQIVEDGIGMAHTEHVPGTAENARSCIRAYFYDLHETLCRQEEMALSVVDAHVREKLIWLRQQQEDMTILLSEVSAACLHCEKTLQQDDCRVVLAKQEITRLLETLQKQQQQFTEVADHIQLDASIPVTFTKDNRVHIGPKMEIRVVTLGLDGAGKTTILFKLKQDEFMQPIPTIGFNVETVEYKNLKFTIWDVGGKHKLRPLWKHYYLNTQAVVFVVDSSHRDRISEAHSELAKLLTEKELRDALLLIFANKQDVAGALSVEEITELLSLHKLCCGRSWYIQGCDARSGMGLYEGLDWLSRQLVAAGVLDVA

Variant | effect of a mutation on the interaction
MAAENSKQFWKRSAKLPGSIQPVYGAQHPPLDPRLTKNFIKERSKVNTVPLKNKKASSFHEFARNTSDAWDIGDDEEEDFSSPSFQTLNSKVALATAAQVLENHSKLRVKPERSQSTTSDVPANYKVIKSSSDAQLSRNSSDTCLRNPLHKQQSLPLRPIIPLVARISDQNASGAPPMTVREKTRLEKFRQLLSSQNTDLDELRKCSWPGVPREVRPITWRLLSGYLPANTERRKLTLQRKREEYFGFIEQYYDSRNEEHHQDTYRQIHIDIPRTNPLIPLFQQPLVQEIFERILFIWAIRHPASGYVQGINDLVTPFFVVFLSEYVEEDVENFDVTNLSQDMLRSIETDSFWCMSKLLDGIQDNYTFAQPGIQKKVKALEELVSRIDEQVHNHFRRYEVEYLQFAFRWMNNLLMRELPLRCTIRLWDTYQSEPEGFSHFHLYVCAAFLIKWRKEILDEEDFQGLLMLLQNLPTIHWGNEEIGLLLAEAYRLKYMFADAPNHYRR [A349T] | disrupting interaction strength

Variants of: B2
Conditions: with pnma5_human PNMA5, Q96PV4
Chain of pnma5_human PNMA5, Q96PV4 (Q96PV4 whole entry): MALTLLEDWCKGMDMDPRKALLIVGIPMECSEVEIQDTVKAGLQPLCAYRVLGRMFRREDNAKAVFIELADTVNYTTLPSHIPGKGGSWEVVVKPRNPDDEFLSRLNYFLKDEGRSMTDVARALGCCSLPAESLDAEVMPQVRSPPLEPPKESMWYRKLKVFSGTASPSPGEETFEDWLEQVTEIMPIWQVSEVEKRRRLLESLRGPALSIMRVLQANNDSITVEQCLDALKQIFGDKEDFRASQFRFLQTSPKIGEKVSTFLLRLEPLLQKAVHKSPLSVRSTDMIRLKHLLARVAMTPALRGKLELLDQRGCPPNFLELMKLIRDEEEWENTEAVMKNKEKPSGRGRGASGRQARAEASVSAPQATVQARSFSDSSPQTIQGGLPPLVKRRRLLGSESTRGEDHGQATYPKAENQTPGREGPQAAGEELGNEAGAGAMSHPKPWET

Variant | effect of a mutation on the interaction
MAAENSKQFWKRSAKLPGSIQPVYGAQHPPLDPRLTKNFIKERSKVNTVPLKNKKASSFHEFARNTSDAWDIGDDEEEDFSSPSFQTLNSKVALATAAQVLENHSKLRVKPERSQSTTSDVPANYKVIKSSSDAQLSRNSSDTCLRNPLHKQQSLPLRPIIPLVARISDQNASGAPPMTVREKTRLEKFRQLLSSQNTDLDELRKCSWPGVPREVRPITWRLLSGYLPANTERRKLTLQRKREEYFGFIEQYYDSRNEEHHQDTYRQIHIDIPRTNPLIPLFQQPLVQEIFERILFIWAIRHPASGYVQGINDLVTPFFVVFLSEYVEEDVENFDVTNLSQDMLRSIETDSFWCMSKLLDGIQDNYTFAQPGIQKKVKALEELVSRIDEQVHNHFRRYEVEYLQFAFRWMNNLLMRELPLRCTIRLWDTYQSEPEGFSHFHLYVCAAFLIKWRKEILDEEDFQGLLMLLQNLPTIHWGNEEIGLLLAEAYRLKYMFADAPNHYRR [A349T] | disrupting interaction strength
